# Patent US20070020627
# pKd: −log10 of the molar value.
# Assays:
# [1] = test system: E2x (6-finger) (artificial); conditions: stated as Km; assay not described
# [2] = test system: E2c (6-finger) (artificial); conditions: stated as Km; assay not described
# [3] = test system: E2cJ15E2x-VP64 (12-finger) (artificial); assay: cell_activity; conditions: HeLa luciferase
# [4] = test system: SKD-E2c (6-finger) (artificial); assay: cell_activity; conditions: HeLa luciferase
# [5] = test system: SKD-E2cJ15E2x (12-finger) (artificial); assay: cell_activity; conditions: HeLa luciferase
# [6] = test system: VP64-E2c (6-finger) (artificial); assay: cell_activity; conditions: HeLa luciferase
substance,measurement,setting,value
ACCGGAGAAACCAGGGGA (double strand) [E2X target],pKd,[1],7.82
GGGGCCGGAGCCGCAGTG (double strand) [E2c target],pKd,[2],9.30
E2p luciferase reporter (erbB2 promoter),activity (fold activation),[3],45
same,activity (fold repression),[4],36
same,activity (fold repression),[5],8
same,activity (fold activation),[6],78
